Results published in patent US20250152742A1, “COMPOSITIONS AND METHODS FOR NEUROLOGICAL DISEASES” (Trames Bio, Inc., priority 2022, published 2025).

System: engineered chimeric receptor SEQ ID NO: 33 and its mutants (human α7-nAChR ligand binding domain / human GlyRα1 ion pore domain) in Lenti-X 293T cells
Experiment: YFP fluorescence quenching anion reporter plate reader assay (percent quench, EC50)
Format: cell-based
Conditions: for YFP fluorescence quenching using CNL001 (percent quench): receptor named in row; for YFP fluorescence quenching using Varenicline, 3 nM var: ligand Varenicline 3 nM; for YFP fluorescence quenching using Varenicline, 30 nM var: ligand Varenicline 30 nM; for YFP fluorescence quenching using Varenicline, 300 nM var: ligand Varenicline 300 nM; for YFP fluorescence quenching using Varenicline, 500 nM var: ligand Varenicline 500 nM; for YFP fluorescence quenching using Varenicline, 1 uM var: ligand Varenicline 1 uM
Method in brief: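 Lenti-X 293T cells co-expressing an anion-quenchable YFP were transiently transfected with receptor DNA, then ligand was added in NaI-substituted buffer (pH 7.2) after 30 min at 37 °C. Fluorescence was read about 2 min; percent quench = mean of last 10 s over 15 s pre-ligand baseline.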

B1: CODA339: engineered receptor: L131D in SEQ ID NO: 33 (protein)
chain: MRCSPGGVWLALAASLLHVSLQGEFQRKLYKELVKNYNPLERPVANDSQPLTVYFSLSLLQIMDVDEKNQVLTTNIWLQMSWTDHYLQWNVSEYPGVKTVRFPDGQIWKPDILLYNSADERFDATFHTNVDVNSSGHCQYLPPGIFKSSCPMDLKNFPMDVQTCKLKFGSWSYGGWSLDLQMQEADISGYIPNGEWDLVGIPGKRSERFYECCKEPYPDVTFTVTMRRRMGYYLIQMYIPSLLIVILSWISFWINMDAAPARVGLGITTVLTMTTQSSGSRASLPKVSYVKAIDIWMAVCLLFVFSALLEYAAVNFVSRQHKELLRFRRKRRHHKSPMLNLFQEDEAGEGRFNFSAYGMGPACLQAKDGISVKGANNSNTTNPPPAPSKSPEEMRKLFIQRAKKIDKISRIGFPMAFLIFNMFYWIIYKIVRREDVHNQ
modifications: synthetic sequence of chimeric LGIC
1 nM CNL001, first column so headed
  YFP fluorescence quenching using CNL001 (percent quench): 73.711%
1 nM CNL001, second column so headed
  YFP fluorescence quenching using CNL001 (percent quench): 76.44%
1 nM brd (TC-5619/Bradanicline)
  YFP fluorescence quenching using TC-5619/Bradanicline (percent quench): 4.12%
3 nM brd (TC-5619/Bradanicline)
  YFP fluorescence quenching using TC-5619/Bradanicline (percent quench): 19.15%
10 nM CNL001, first column so headed
  YFP fluorescence quenching using CNL001 (percent quench): 77.049%
10 nM CNL001, second column so headed
  YFP fluorescence quenching using CNL001 (percent quench): 77.76%
10 nM brd (TC-5619/Bradanicline)
  YFP fluorescence quenching using TC-5619/Bradanicline (percent quench): 68.98%
30 nM TC-6683
  YFP fluorescence quenching using TC-6683 (percent quench): −18.32%
30 nM brd (TC-5619/Bradanicline)
  YFP fluorescence quenching using TC-5619/Bradanicline (percent quench): 77.29%
50 nM CNL001, first column so headed
  YFP fluorescence quenching using CNL001 (percent quench): 77.882%
50 nM CNL001, second column so headed
  YFP fluorescence quenching using CNL001 (percent quench): 78.708%
50 nM abt (ABT-126)
  YFP fluorescence quenching using ABT-126 (percent quench): −16.65%
100 nM CNL001, first column so headed
  YFP fluorescence quenching using CNL001 (percent quench): 79.567%
100 nM CNL001, second column so headed
  YFP fluorescence quenching using CNL001 (percent quench): 79.273%
100 nM CNL002
  YFP fluorescence quenching (percent quench): 12.83%
100 nM abt (ABT-126)
  YFP fluorescence quenching using ABT-126 (percent quench): −12.3%
100 nM azd0328
  YFP fluorescence quenching using AZD-0328 (percent quench): 62.87%
100 nM brd (TC-5619/Bradanicline)
  YFP fluorescence quenching using TC-5619/Bradanicline (percent quench): 81.41%
300 nM TC-6683
  YFP fluorescence quenching using TC-6683 (percent quench): −17.25%
300 nM abt (ABT-126)
  YFP fluorescence quenching using ABT-126 (percent quench): 18.5%
300 nM azd0328
  YFP fluorescence quenching using AZD-0328 (percent quench): 77.03%
300 nM brd (TC-5619/Bradanicline)
  YFP fluorescence quenching using TC-5619/Bradanicline (percent quench): 75.79%
1 uM CNL001, first column so headed
  YFP fluorescence quenching using CNL001 (percent quench): 79.992%
1 uM CNL001, second column so headed
  YFP fluorescence quenching using CNL001 (percent quench): 79.927%
1 uM CNL002
  YFP fluorescence quenching (percent quench): 77.73%
1 uM abt (ABT-126)
  YFP fluorescence quenching using ABT-126 (percent quench): 59.09%
1 uM brd (TC-5619/Bradanicline)
  YFP fluorescence quenching using TC-5619/Bradanicline (percent quench): 82.26%
3 uM TC-6683
  YFP fluorescence quenching using TC-6683 (percent quench): −10%
10 uM ach (acetylcholine)
  YFP fluorescence quenching (percent quench): 4.56%
30 uM CNL002
  YFP fluorescence quenching (percent quench): 80.58%
30 uM TC-6683
  YFP fluorescence quenching using TC-6683 (percent quench): −8.51%
30 uM azd0328
  YFP fluorescence quenching using AZD-0328 (percent quench): 78.63%
100 uM TC-6683
  YFP fluorescence quenching using TC-6683 (percent quench): −9.77%
100 uM ach (acetylcholine)
  YFP fluorescence quenching (percent quench): 10.19%
1 mM ach (acetylcholine)
  YFP fluorescence quenching (percent quench): 77.34%
3 mM ach (acetylcholine)
  YFP fluorescence quenching (percent quench): 77.79%
Ligand Facinicline 30 nM
  YFP fluorescence quenching using Facinicline, 30 nM fac: 12.67
Ligand Facinicline 300 nM
  YFP fluorescence quenching using Facinicline, 300 nM fac: 80.4
Ligand Facinicline 10 uM
  YFP fluorescence quenching using Facinicline, 10 uM fac: 82.18
Ligand Facinicline 30 uM
  YFP fluorescence quenching using Facinicline, 30 uM fac: 82.14
Ligand TC-6987 1 uM
  YFP fluorescence quenching using TC-6987, 1 uM tc6987: 50
Ligand TC-6987 3 uM
  YFP fluorescence quenching using TC-6987, 3 uM tc6987: 80.39
Ligand TC-6987 5 uM
  YFP fluorescence quenching using TC-6987, 5 uM tc6987: 79.93
Ligand TC-6987 10 uM
  YFP fluorescence quenching using TC-6987, 10 uM tc6987: 80.99
Ligand TC-6987 30 uM
  YFP fluorescence quenching using TC-6987, 30 uM tc6987: 83.11
Ligand TC-6987 50 uM
  YFP fluorescence quenching using TC-6987, 50 uM tc6987: 83.18
Ligand TC-6987 100 uM
  YFP fluorescence quenching using TC-6987, 100 uM tc6987: 82.16
Ligand TC-6987 300 uM
  YFP fluorescence quenching using TC-6987, 300 uM tc6987: 64.58
Ligand TC-6987 500 uM
  YFP fluorescence quenching using TC-6987, 500 uM tc6987: 76.77
First column
  YFP fluorescence quenching using Varenicline, 3 nM var: −0.902
  YFP fluorescence quenching using Varenicline, 30 nM var: −6.009
  YFP fluorescence quenching using Varenicline, 300 nM var: 49.328
  YFP fluorescence quenching using Varenicline, 500 nM var: 66.7
  YFP fluorescence quenching using Varenicline, 1 uM var: 70.85
Second column
  YFP fluorescence quenching using Varenicline, 3 nM var: −7.62
  YFP fluorescence quenching using Varenicline, 30 nM var: −3.447
  YFP fluorescence quenching using Varenicline, 300 nM var: 47.685
  YFP fluorescence quenching using Varenicline, 500 nM var: 64.798
  YFP fluorescence quenching using Varenicline, 1 uM var: 69.038
